Laboratory results as given in article PMC2819845 (Biochemistry, 2009).

Target: the molecule itself
Assay: crystal structure

B1: phosphorylated Sts-2PGM (phospho-His366) (domain or fragment, mouse, UniProt Q3V3E1 354-624, looked up)
chain: ATISRRGILVVRHGERVDQVFGKSWLQQCTTADGKYYRPDLNFPRSLPRRSNGIKDFENDPPLSSCGIFQARLAGEALLDSGVRVTAVFASPALRCVQTAKHILEELKLEKKLKIRVEPGIFEWMKWEASKATLTFLTLEELKEANFNVDLDYRPALPRCSLMPAESYDQYVERCAVSMGQIINTCPQDMGITLIVSHSSALDSCTRPLLGLPPRECGDFAQLVRKIPSLGMCFCEENREDGKWDLVNPPVKTLTHGANSVFNWRNWISSN
modifications: phosphohistidine at 366 (on NE2; occupancy between 0.50 and 0.70, in three of the four monomers)
B1: binds.
